For test [1], the target named is T1, Gal4 DBD fused to HRASG12V (codons 1-166) (mammalian bait from pM1-HRASG12V) (UniProt P04386 1-147; P01112 1-166). Kind of test: cell-based or functional assay.
For test [2], the target named is T2, Recombinant activated HRAS (G12V; residues 1-166), GppNp-bound (human, UniProt P01112 1-166, loaded with 5'-guanylylimidodiphosphate (GppNp), a non-covalent nucleotide).
T2 construct: range 1-166; Antigen of the ELISA and BIAcore assays; also called HRASG12V-GppNp; RASG12V-GppNp
Nature of the test: SPR (BIAcore 2000), Example 12.

Test [3] addresses T3, LexA DBD (made from the empty pBTM116 vector) (UniProt P0A7C2 1-202).
T3 construct: domain: LexA DBD; Yeast bait control
T3 sequence (looked up): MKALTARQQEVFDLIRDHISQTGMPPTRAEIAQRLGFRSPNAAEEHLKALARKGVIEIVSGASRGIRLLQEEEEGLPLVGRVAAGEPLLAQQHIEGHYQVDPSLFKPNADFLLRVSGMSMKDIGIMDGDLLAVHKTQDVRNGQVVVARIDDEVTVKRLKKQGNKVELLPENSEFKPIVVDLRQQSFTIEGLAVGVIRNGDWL
Kind of test: yeast two-hybrid, scFv-VP16 prey (data not shown).

Test [4] has as its target β-galactosidase (non-relevant antigen bait in yeast) (UniProt P00722 1-1024 = β-galactosidase, limits assumed). Nature of the test: yeast two-hybrid, scFv-VP16 prey (data not shown).
Test [5] has as its target T2, Recombinant activated HRAS (G12V; …). Kind of test: SPR (BIAcore 2000), purified His-tagged fragment on RAS antigen.
The target is the same in test [6]. Kind of test: SPR, BIAcore 2000; HRASG12V-GppNp immobilised, purified scFv injected; BIAevaluation 2.1.
Test [7] shares this target. Kind of test: SPR (BIAcore 2000), HRASG12V-GppNp immobilised (about 1500 RU), purified scFv as analyte, Example 4; Example 4, BIAcore, FIG. 6B.
For the next test, the target named is T4, BSA (bovine, UniProt P02769).
T4 construct: coated on the ELISA plate at 30 mg/ml as control antigen; also called bovine serum albumin
Kind of test: ELISA; BSA coated at 30 mg/ml, purified His-tagged scFv, detection with HRP anti-polyhistidine, absorption 450-650 nm.

The target of test [8] is HRASG12V expressed in NIH3T3 cells from pZIPneoSV(X)-HRASG12V (UniProt P01112 1-186, limits assumed). Nature of the test: cell-based or functional assay.
In test [9] the target is T1, Gal4 DBD fused to HRASG12V (codons …). Kind of test: COS7 luciferase reporter with HRAS, KRAS or NRAS (data not shown).
Test [10] has as its target T2, Recombinant activated HRAS (G12V; …). Kind of test: SPR (BIAcore 2000), HRASG12V-GppNp immobilised (about 1500 RU), purified scFv as analyte, Example 4.

B1: anti-RAS scFv33 (scFv)
scFv: QVQLVEAGGGLVQPGGSLRLSCAASGFSFSTFSMNWVRQAPGKGLEWVSYISSSGRTIYYADSVKGRFTISRDNAKNSLYLQMNSLRDEDTAVYYCARGRFFDYWGQGTLVTVSSGGGGSGGGGSGGGGSDIVMTQSPSFLSASVGDRVTITCRASQSISRYLNWYQQKPGKAPKLLIYAASSLQSGVPSRFSGSGSGTDFTLTISSLQPEDFAIYYCQQSYSTLLTFGGGTKLEIKR
notes: ELISA and BIAcore: purified from periplasm with C-terminal His6-tag and myc-tag; Two-hybrid: fused to VP16 AD; Co-location: with nls and myc-tag; also called ICAb 33
With B1, in [1], the “luciferase reporter activation in COS7 cells” value is above 10 fold. In addition, the values for the Kd in test [2], in test [6] and in [7] were around 10 nM, 9.97 nM and 1.39 nM, respectively. Also, the binding result in [3] is given as “no binding”; in test [4], “no binding”; with BSA, “no binding (tested: 450 ng per well (legend))”. The koff in test [5] and in test [6] was 0.00113 s⁻¹ throughout. Further, the kon in test [5] and in test [6] was 176000 M⁻¹ s⁻¹ each time.

B2: anti-RAS scFv J48 (scFv)
scFv: QVQLVEAGGGLVQPGGSLRLSCAASGFSFSYLYMNWVRQAPGKGLEWVSYISSSGRTIYYADSVKGRFTISRDNAKNSLYLQMNSLRDEDTAVYYCARGRFFDYWGQGTLVTVSSGGGGSGGGGSGGGGSDIVMTQSPSFLSASVGDRVTITCRASQSISRYLNWYQQKPGKAPKLLIYAASSLQSGVPSRFSGSGSGTDFTLTISSLQPEDFAIYYCQQSYSTLLTFGGGTKLEIKR
notes: Same formats as scFv33 (His6/myc purified; VP16 fusion; nls-myc)
Regarding B2, in test [1], the “luciferase reporter activation in COS7 cells” value is above 10 fold. Moreover, the values for the binding result (in [3]; in [4]; with BSA) were “no binding”, “no binding” and “no binding (tested: 450 ng per well (legend))”, respectively. Further, the Kd worked out at 2.6 nM in test [6] and 3.63 nM in test [7]. Further, the koff in [6] came to 0.00482 s⁻¹. The kon in test [6] came to 1.87e+06 M⁻¹ s⁻¹.

B3: IDab anti-RAS #6 (other)
VH: EVQLLESGGGLVQPGGSLRLSCAASGFSFSTFSMNWVRQAPGKGLEWVSYISRTSKTIYYADSVKGRFTISRDNSKNTLYLQMNSLRAEDTAVYYCARGRFFDYWGQGTLVTVSS
Turning to B3, the “transforming activity in NIH3T3 cells, relative to HRASG12V alone” value in test [8] was below 10%.

B4: IDab 33 (single VH domain of anti-RAS scFv33) (other)
VH: QVQLVEAGGGLVQPGGSLRLSCAASGFSFSTFSMNWVRQAPGKGLEWVSYISSSGRTIYYADSVKGRFTISRDNAKNSLYLQMNSLRDEDTAVYYCARGRFFDYWGQGTLVTVSS
notes: also called 33VH; VH from intrabody anti-RAS scFv33
Consider B4, for which, in test [2], the Kd is around 90 nM. Besides, in test [5], the koff is 0.0144 s⁻¹ and the kon came to 12500 M⁻¹ s⁻¹.

B5: IDab anti-RAS #12 (other)
VH: EVQLLESGGGLVQPGGSLRLSCAASGFSFSVWAMSWVRQAPGKGLEWVSYISRTSKTIYYADSVKGRFTISRDNSKNTLYLQMNSLRAEDTAVYYCARGRFFDYWGQGTLVTVSS
As to B5, the Kd in test [2] was around 26 nM. Further, the binding result in test [9] was “binds”.

B6: IDab anti-RAS #3 (other)
VH: QVQLVESGGGLVQPGGSLRLSCAASGFTFSSYAMHWVRQAPGKGLEWVSVISKLTHHTYYADSVKGRFTISRDNSKNTLYLQMNSLRAEDTAVYYCARGVQGYVHGLKGNWFDYWGQGTLVTVSS
notes: also called anti-RAS clone #3; clone 3
On to B6, for which the Kd in test [2] is around 180 nM. In addition, in test [5], the koff is 0.00104 s⁻¹ and the kon is 5660 M⁻¹ s⁻¹.

B7: anti-RAS scFv I21 (scFv)
scFv: EVQLLESGGGLVQPGGSLRLSCAASGFTFSSYAMSWVRQAPGKGLEWVSTISYGGSNTNYADSVKARFTISRDNSKNTLYLQMNSLRAEDTAVYYCAKGNNAFDYWGQGTLVTVSSGGGGSGGGGSGGGGSTDIQMTQSPSSLSASVGDRVTITCRASQSISSYLNWYQQKPGKAPKLLIYNASALQSGVPSRFSGSGSGTDFTLTISSLQPEDFATYYCQQYTSTPRTFGQGTKVEIKR
notes: also called ICAb I21
On to B7, for which the binding result in [3] is reported as “no binding”; in test [4], “no binding”; with BSA it was “no binding (tested: 450 ng per well (legend))”. The values for the Kd in test [10] and in test [6] were 2160 nM and 1310 nM, respectively. Further, the koff in [6] was found to be 0.0212 s⁻¹. In test [6], the kon is 16700 M⁻¹ s⁻¹.

Values taken from patent US20050288492A1 (MEDICAL RESEARCH COUNCIL, published 2005).
